Measured values taken from the supplement of paper PMC11246515.
± gives the standard deviation of the averaged measurements.

Assay: total protein half-life in vivo (active degradation + dilution); higher = more stable protein
[1] = E. coli NCM3722 delta-clpP delta-lon delta-hslV, growth: N-lim chemostat, doubling time 6 h
[2] = E. coli NCM3722 delta-clpP, growth: N-lim chemostat, doubling time 6 h
[3] = E. coli NCM3722 delta-hslV, growth: N-lim chemostat, doubling time 6 h
[4] = E. coli NCM3722 delta-lon, growth: N-lim chemostat, doubling time 6 h
[5] = E. coli NCM3722 delta-smpB, growth: N-lim chemostat, doubling time 6 h
[6] = wild type E. coli NCM3722, growth: C-lim chemostat, doubling time 3 h
[7] = wild type E. coli NCM3722, growth: C-lim chemostat, doubling time 6 h
[8] = wild type E. coli NCM3722, growth: C-lim chemostat, doubling time 12 h
[9] = wild type E. coli NCM3722, growth: N-lim chemostat, doubling time 6 h
[10] = wild type E. coli NCM3722, growth: N-lim chemostat, doubling time 12 h
[11] = wild type E. coli NCM3722, growth: P-lim chemostat, doubling time 6 h
[12] = wild type E. coli NCM3722, growth: P-lim chemostat, doubling time 12 h

Row | Sequence | total protein half-life in vivo [1] [h] | total protein half-life in vivo [2] [h] | total protein half-life in vivo [3] [h] | total protein half-life in vivo [4] [h] | total protein half-life in vivo [5] [h] | total protein half-life in vivo [6] [h] | total protein half-life in vivo [7] [h] | total protein half-life in vivo [8] [h] | total protein half-life in vivo [9] [h] | total protein half-life in vivo [10] [h] | total protein half-life in vivo [11] [h] | total protein half-life in vivo [12] [h]
1 | MSQRGLEALLRPKSIAVIGASMKPNRAGYLMMRNLLAGGFNGPVLPVTPAWKAVLGVLAWPDIASLPFTPDLAVLCTNASRNLALLEELGEKGCKTCIILSAPASQHEDLRACALRHNMRLLGPNSLGLLAPWQGLNASFSPVPIKRGKLAFISQSAAVSNTILDWAQQRKMGFSYFIALGDSLDIDVDELLDYLARDSKTSAILLYLEQLSDARRFVSAARSASRNKPILVIKSGRSPAAQRLLNTTAGMDPAWDAAIQRAGLLRVQDTHELFSAVETLSHMRPLRGDRLMIISNGAAPAALALDALWSRNGKLATLSEETCQKLRDALPEHVAISNPLDLRDDASSEHYIKTLDILLHSQDFDALMVIHSPSAAAPATESAQVLIEAVKHHPRSKYVSLLTNWCGEHSSQEARRLFSEAGLPTYRTPEGTITAFMHMVEYRRNQKQLRETPALPSNLTSNTAEAHLLLQQAIAEGATSLDTHEVQPILQAYGMNTLPTWIASDSTEAVHIAEQIGYPVALKLRSPDIPHKSEVQGVMLYLRTANEVQQAANAIFDRVKMAWPQARVHGLLVQSMANRAGAQELRVVVEHDPVFGPLIMLGEGGVEWRPEDQAVVALPPLNMNLARYLVIQGIKSKKIRARSALRPLDVAGLSQLLVQVSNLIVDCPEIQRLDIHPLLASGSEFTALDVTLDISPFEGDNESRLAVRPYPHQLEEWVELKNGERCLFRPILPEDEPQLQQFISRVTKEDLYYRYFSEINEFTHEDLANMTQIDYDREMAFVAVRRIDQTEEILGVTRAISDPDNIDAEFAVLVRSDLKGLGLGRRLMEKLITYTRDHGLQRLNGITMPNNRGMVALARKLGFNVDIQLEEGIVGLTLNLAQREES | 5.32 ± 0.66 | 5.3 ± 0.37 | 4.54 ± 0.15 | 4.46 ± 0.67 | 4.92 ± 0.72 | 3.28 ± 0.35 | 6.133 ± 0.015 | 12.2 ± 0.95 | 5 ± 0.23 | 7.46 ± 0.52 | 6.35 ± 0.48 | 14.1 ± 0.23
2 | MSQTSTLKGQCIAEFLGTGLLIFFGVGCVAALKVAGASFGQWEISVIWGLGVAMAIYLTAGVSGAHLNPAVTIALWLFACFDKRKVIPFIVSQVAGAFCAAALVYGLYYNLFFDFEQTHHIVRGSVESVDLAGTFSTYPNPHINFVQAFAVEMVITAILMGLILALTDDGNGVPRGPLAPLLIGLLIAVIGASMGPLTGFAMNPARDFGPKVFAWLAGWGNVAFTGGRDIPYFLVPLFGPIVGAIVGAFAYRKLIGRHLPCDICVVEEKETTTPSEQKASL [P0AER0] | – | – | – | – | – | 2.07 | 4.17 | 6.363 ± 0.04 | – | – | – | –
3 | MSQVQSGILPEHCRAAIWIEANVKGEVDALRAASKTFADKLATFEAKFPDAHLGAVVAFGNNTWRALSGGVGAEELKDFPGYGKGLAPTTQFDVLIHILSLRHDVNFSVAQAAMEAFGDCIEVKEEIHGFRWVEERDLSGFVDGTENPAGEETRREVAVIKDGVDAGGSYVFVQRWEHNLKQLNRMSVHDQEMVIGRTKEANEEIDGDERPETSHLTRVDLKEDGKGLKIVRQSLPYGTASGTHGLYFCAYCARLHNIEQQLLSMFGDTDGKRDAMLRFTKPVTGGYYFAPSLDKLMAL | 3.34 ± 0.63 | 3.25 ± 0.84 | 3.36 ± 0.15 | 3.73 ± 0.79 | 3.14 ± 0.27 | 2.96 ± 0.12 | – | 8.52 ± 2.9 | 3.18 ± 0.17 | 4.17 ± 0.094 | 5.09 ± 0.12 | 9.66 ± 0.84
4 | MSQVSTEFIPTRIAILTVSNRRGEEDDTSGHYLRDSAQEAGHHVVDKAIVKENRYAIRAQVSAWIASDDVQVVLITGGTGLTEGDQAPEALLPLFDREVEGFGEVFRMLSFEEIGTSTLQSRAVAGVANKTLIFAMPGSTKACRTAWENIIAPQLDARTRPCNFHPHLKK [P0AEZ9] | 5.88 ± 0.086 | 5.83 ± 0.34 | 5.23 ± 0.43 | 5.076 ± 0.019 | 4.7 ± 0.21 | 3.17 ± 0.28 | 5.99 ± 0.53 | 10.3 ± 1.4 | 4.7 ± 0.53 | 8.21 ± 0.61 | 6.07 ± 0.18 | 13.4 ± 0.48
5 | MSRFIPIELHHASRLLNHGPTVLITSFDEQSQRRNIMAAAWSMPVEFEPPRVAIVVDKSTWTRELIEHNGKFGIVIPGVAATNWTWAVGSVSGRDEDKFNCYGIPVVRGPVFGLPLVEEKCLAWMECRLLPATSAQEEYDTLFGEVVSAAADARVFVEGRWQFDDDKLNTLHHLGAGTFVTSGKRVTAG | 5.07 ± 0.36 | 4.49 ± 0.06 | 4.12 ± 0.3 | 4.25 ± 0.39 | 4.19 ± 0.066 | 2.96 ± 0.065 | 4.15 ± 0.89 | 9.97 ± 0.71 | 4.27 ± 0.46 | 6.92 ± 0.15 | 5.45 ± 0.67 | 10.4 ± 0.57
